Literature values in US20240293585A1, “HIGH MOLECULAR WEIGHT ZWITTERION-CONTAINING POLYMERS” (Kodiak Sciences Inc., priority 0001, published 2024).

Q: For “Cimzia: Fab′ against TNFa conjugated with a 40 kDa branched polymer [reference compound]”, which “Human half life after subcutaneous injection” value (human, subcutaneous) is on record?
A: 311 h

Q: With “Mircera: PEGylated form of recombinant human erythropietin [reference compound]” as the substance, how does the “in vivo half life after subcutaneous injection” value (chronic renal disease patients, subcutaneous) read?
A: approximately 140 hours

Q: Which “mean terminal half life after intravenous injection” value (human, intravenous) does the source give for “rhEPO: 30.4 kDa protein with 165 amino acids; native form of human erythropoietin with 3 N-linked chains” here?
A: 7 h

Q: What about the “mean terminal half life after subcutaneous injection” value (human, subcutaneous) of the same substance?
A: 16 h
